This note sets out measurements from patent US20050147687A1, “Methods for fabrication, uses and compositions of small spherical particles of AAT prepared by controlled phase separation” (priority 2003, published 2005).

The target of this test is porcine pancreatic elastase (PPE) (Sus scrofa, UniProt P00772). As to the kind of experiment: Inhibition of porcine pancreatic elastase by rAAT (specific activity). It counts as biochemical. The method, then:
To determine the specific activity, the rAAT small spherical particles were dissolved in 0.2M Tris-HCl pH 8.0 at room temperature. The resulting solution was analyzed by an assay which measures the capacity of rAAT to inhibit the ability of porcine pancreatic elastase (PPE) to hydrolyze synthetic peptides that contain a p-nitroanilide group at their C-terminus. The same solution of rAAT small spherical particles was then assayed for protein concentration using the Bicinchoninic Acid (BCA) assay. A control rAAT starting material solution was also analyzed in both assays. Because the activity assay was developed to determine the activity based on a concentration of 1 mg/ml protein per sample, the activity value was corrected based on the actual protein concentration as determined by BCA, giving the specific activity value: [formula]

porcine pancreatic elastase (PPE), sequence (P00772 27-266): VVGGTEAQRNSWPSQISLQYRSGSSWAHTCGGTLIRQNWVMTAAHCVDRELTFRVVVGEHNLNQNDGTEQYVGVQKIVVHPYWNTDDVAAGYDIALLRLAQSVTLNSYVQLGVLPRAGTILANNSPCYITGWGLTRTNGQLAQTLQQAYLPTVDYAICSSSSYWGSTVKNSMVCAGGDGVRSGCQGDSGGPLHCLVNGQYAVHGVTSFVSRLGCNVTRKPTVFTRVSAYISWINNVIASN

In the case of “control rAAT starting material: control solution of recombinant alpha-1-antitrypsin starting material”, the “specific activity, inhibition of porcine pancreatic elastase” value is, setting by setting: (scale 100-300 mg (n = 12, column)) 64.34 ± 4.95 IU/mg; (scale 200-300 mg (n = 8, vessel)) 65.87 ± 0.98 IU/mg.
